# From US20110039331A1 (OSAKA UNIVERSITY, published 2011)
# B1: P20.1 antibody (monoclonal antibody produced by mouse-mouse hybridoma P20.1, FERM BP-11061) (antibody, mouse IgG1, V domains shown)
# VH: QIQLVQSGPEVQKPGETVRISCKASGYTFTTAGMQWVQKMPGKSLKWIGWINTRSGVPKYAEDFKGRFAFSLETSASIAYLHINNLKNEDTATYFCAREGPGFVYWGQGTLVTVSA
# VL: QTVVTQESALTTSPGETVTLTCRSSTGVVTTSNYANWVQEKPDHLFTGLIVGTNNRVPGVPPRFSGSLIGDKAALTITGAQTEDEAIYFCALWYSNHWVFGGGTKLTVL
# notes: Biotinylated in the sandwich ELISA of 7-2-1 and coupled to CNBr-Sepharose in the pull-down and purification experiments; also called P20.1 Ab; monoclonal P20.1 antibody
# B2: Fab fragment of the P20.1 antibody (Fab, V domains shown)
# VH: B1 VH
# VL: B1 VL
# notes: Made by papain digestion of the purified IgG1/lambda antibody; also called P20.1 antibody Fab fragment
# Tests used:
# [1] = target: Flag-tagged Fn (Flag-Fn) (human) (UniProt P02751); test: SPR (Biacore), Flag-Fn on the chip, M2 antibody flowed over
# Flag-tagged Fn (Flag-Fn) (human), sequence (P02751 other isoform, or with tags, fused parts or gaps limits assumed): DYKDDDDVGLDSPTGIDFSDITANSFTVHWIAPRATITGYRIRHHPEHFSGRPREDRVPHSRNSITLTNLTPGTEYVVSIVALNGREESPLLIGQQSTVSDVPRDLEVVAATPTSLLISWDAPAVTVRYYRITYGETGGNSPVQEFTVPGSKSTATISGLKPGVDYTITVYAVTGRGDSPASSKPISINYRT
# [2] = target: T1, hGH-BAS-γC-P4×3, human growth factor/human fibrinogen γ chain C domain fusion protein with 3 repeats of the … (human, UniProt P01241 27-217; P02679 169-437); test: SPR (Biacore X-100), P20.1 antibody-immobilized chip, fusion protein flowed over
# T1 construct: also called P4×3-tagged hGH fusion protein
# [3] = target: hGH-BAS-γC-P4×5, human growth factor/human fibrinogen γ chain C domain fusion protein with 5 repeats of the … (human, UniProt P01241 27-217; P02679 169-437); test: as above
# [4] = target: T2, tag peptide/F-spondin fusion protein (P4×3, TEV protease cleavage sequence, N-terminal 146-amino-acid domain …); test: affinity purification from culture supernatant on P20.1 antibody-Sepharose, elution with 40% propylene glycol and 1 M NaCl, SDS gel electrophoresis
# T2 construct: Secreted from HEK293T cells; also called recombinant F-spondin protein
# T2 chain: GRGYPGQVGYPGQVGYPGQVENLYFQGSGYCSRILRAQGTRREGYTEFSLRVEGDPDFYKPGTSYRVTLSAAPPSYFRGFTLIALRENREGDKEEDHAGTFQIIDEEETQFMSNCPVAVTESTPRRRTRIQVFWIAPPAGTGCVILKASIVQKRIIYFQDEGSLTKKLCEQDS
# Description: Washing with TBS and eluting with a buffer solution containing 40% propylene glycol and 1 M NaCl were performed, and the resulting effluent was subjected to SDS gel electrophoresis.
# [5] = target: T3, P4(C8) peptide (8-residue peptide PRGYPGQV) (human); test: X-ray crystallography of the complex
# T3 peptide: PRGYPGQV
# [6] = target: P20.1 antibody (monoclonal antibody produced by mouse-mouse hybridoma P20.1, FERM BP-11061); test: competitive dissociation ELISA: free peptide added for 30 minutes to P20.1 antibody bound on coated P4(20)-Fn
# [7] = target: P20.1 antibody (monoclonal antibody produced by mouse-mouse hybridoma P20.1, FERM BP-11061); test: competitive elution of the P4×3-tagged hGH fusion protein from P20.1 antibody-Sepharose, SDS gel
# [8] = target: P20.1 antibody (monoclonal antibody produced by mouse-mouse hybridoma P20.1, FERM BP-11061); test: competitive dissociation ELISA: P20.1 antibody bound to coated P4(20)-Fn, free P4(C8) peptide added at the final washing step for 30 minutes; displaced partner P4(20)-Fn
molecule,measurement,setting,value
commercially available anti-Flag antibody M2,Kd,[1],2.7 nM
same,koff,[1],0.000395 s⁻¹
same,kon,[1],146000 M⁻¹ s⁻¹
B1,fold of the maximum binding capacity against the fusion protein with one repeat,[2],≥ 4 fold
same,fold of the maximum binding capacity against the fusion protein with one repeat,[3],≥ 4 fold
same,binding result,[4],binds
B2,binding result,[5],binds
PRGYPGQV [P4(C8) peptide (8-residue peptide PRGYPGQV)],peptide concentration at which almost complete dissociation was confirmed,[6],0.1 mg/mL
same,peptide concentration that elutes the tagged fusion protein,[7],> 0.1 mg/mL
same,IC50 (read off the curve),[8],10 µg/mL
